Numbered stars: 1 amine (or outer) side, 2 acyl side, 3 side chain; on linkers, the order of the positions; unused ones are H or OH. Bridge positions count the residues as written; N and C are the ends. Square brackets hold non-standard residues; d marks the D form. Ends that are not written are not given here. 1Nal = N[C@@H](Cc1cccc2ccccc12)C(=O)O; TBMB = c1c(C[*:1])cc(C[*:3])cc1C[*:2]; hArg = N=C(N)NCCCC[C@H](N)C(=O)O; Tle = CC(C)(C)[C@H](N)C(=O)O; Aib = CC(C)(N)C(=O)O; βAla = NCCC(=O)O; Sar = CNCC(=O)O
What was measured:
[1] = molecular target: T1, Human EphA2 (Ecto) (Human, UniProt P29317 24-537); assay: FP competition; competitor Compound 18
T1 construct: extracellular domain
T1 sequence (P29317 24-537): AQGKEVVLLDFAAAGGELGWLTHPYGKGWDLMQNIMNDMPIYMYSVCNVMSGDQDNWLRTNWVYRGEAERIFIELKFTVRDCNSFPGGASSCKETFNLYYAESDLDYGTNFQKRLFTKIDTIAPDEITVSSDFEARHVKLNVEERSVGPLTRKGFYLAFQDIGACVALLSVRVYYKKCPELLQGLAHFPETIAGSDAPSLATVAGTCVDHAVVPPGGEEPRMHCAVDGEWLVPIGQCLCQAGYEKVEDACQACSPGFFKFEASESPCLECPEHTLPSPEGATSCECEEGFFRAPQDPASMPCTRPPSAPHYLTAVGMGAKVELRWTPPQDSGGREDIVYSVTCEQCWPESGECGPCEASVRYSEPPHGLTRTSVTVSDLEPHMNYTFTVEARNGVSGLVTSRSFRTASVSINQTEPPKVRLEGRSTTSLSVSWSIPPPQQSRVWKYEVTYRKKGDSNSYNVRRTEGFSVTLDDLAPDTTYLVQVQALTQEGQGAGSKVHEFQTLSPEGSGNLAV

[2] = molecular target: T1, Human EphA2 (Ecto); assay: FP competition; competitor Compound 66
Experimental: Peptides without a fluorescent tag were tested in competition with a peptide with a fluorescent tag and a known Kd (Table 2). Peptides were diluted to an appropriate concentration in assay buffer as described in the direct binding assay with a maximum of 5% DMSO, then serially diluted 1 in 2. Five μL of diluted peptide was added to the plate followed by 10 μL of human or mouse EphA2 (Table 1) at a fixed concentration which was dependent on the fluorescent peptide used (Table 2), then 10 μL fluorescent peptide added. Measurements were conducted as for the direct binding assay, however the gain was determined prior to the first measurement.

[3] = molecular target: T1, Human EphA2 (Ecto); assay: FP competition; competitor Compound 18; remark: listed apart in the source

| Binder | Ki [1] [nM] | Ki [2] [nM] | Ki [3] [nM] |
| --- | --- | --- | --- |
| [Sar][Sar]ACP[1Nal]GPFWCP[Tle]NRP[dA]C (linker 4-11-18 via TBMB) [Compound 132] |  | 8.7 | 7.7 |
| Ac-[Sar][Sar]A[dH]DVPCP[1Nal]G[Aib]F[1Nal]CP[Tle]NR[Aib]GC (linker 8-15-22 via TBMB) [Compound 232] | 0.9 |  |  |
| [Sar][Sar]ACP[1Nal]GPFWCPVN[hArg]P[dA]C (linker 4-11-18 via TBMB) [Compound 134] |  | 6.15 | 1.2 |
| ADVHCPWGPFWCPVNRPGCA (linker 5-12-19 via TBMB) [Compound 57] |  | 1.2 | 0.48 |
| ADVTCPWGPFWCPVNRPGCA (linker 5-12-19 via TBMB) [Compound 58] |  | 2.65 | 1.35 |
| AEGLPCPWGPFWCPVNRPGCA (linker 6-13-20 via TBMB) [Compound 55] |  | 6.15 | 11.3 |
| Ac-[Sar][Sar]A[dH]DVPCP[1Nal]G[Aib]F[1Nal]CP[Tle]N[hArg]PGC (linker 8-15-22 via TBMB) [Compound 231] | 1.93 |  |  |
| [Sar][Sar]AC[Aib][1Nal]G[Aib]FWCPVNR[Aib]GC (linker 4-11-18 via TBMB) [Compound 135] |  | 30 | 43 |
| [Sar][Sar]ACP[1Nal]G[Aib]FWCP[Tle]N[hArg]PGC (linker 4-11-18 via TBMB) [Compound 136] |  | 15 | 23 |
| [dD]VTCP[1Nal]G[Aib]F[1Nal]CP[Tle]NR[Aib]GC (linker 4-11-18 via TBMB) [Compound 186] | 1.34 |  |  |
| {Ac-βAla}-[Sar][Sar][Sar][Sar][Sar][Sar][Sar][Sar][Sar][Sar]H[dD]VPC[Aib][1Nal]G[Aib]F[1Nal]CP[Tle]N[hArg]P[dD]C (linker 15-22-29 via TBMB) [Compound 237] | 2.4 |  |  |
| [βAla][Sar][Sar][Sar][Sar][Sar][Sar][Sar][Sar][Sar][Sar]H[dD]VPC[Aib][1Nal]G[Aib]F[1Nal]CP[Tle]NRPGC (linker 16-23-30 via TBMB) [Compound 234] | 3.94 |  |  |
| Ac-[Sar][Sar]A[dD]VTCP[1Nal]G[Aib]F[1Nal]CP[Tle]N[hArg]P[dD]C (linker 7-14-21 via TBMB) [Compound 184] | 1.19 |  |  |
| [βAla][Sar][Sar][Sar][Sar][Sar][Sar][Sar][Sar][Sar][Sar]H[dD]VPC[Aib][1Nal]G[Aib]F[1Nal]CP[Tle]N[hArg]PGC (linker 16-23-30 via TBMB) [Compound 235] | 2.58 |  |  |
| [Sar][Sar]ACP[1Nal]GPFWCPV[dA][hArg]PGC (linker 4-11-18 via TBMB) [Compound 133] |  | 3.7 | 14 |
| Ac-[Sar][Sar]A[dD]VTCP[1Nal]G[Aib]F[1Nal]CP[Tle]NR[Aib]GC (linker 7-14-21 via TBMB) [Compound 183] | 1.02 |  |  |
| Ac-[Sar][Sar]A[dD]VTCP[1Nal]G[Aib]F[1Nal]CP[Tle]N[hArg]PGC (linker 7-14-21 via TBMB) [Compound 182] | 1.16 |  |  |
| [βAla][Sar][Sar][Sar][Sar][Sar][Sar][Sar][Sar][Sar][Sar]H[dD]VPC[Aib][1Nal]G[Aib]F[1Nal]CP[Tle]N[hArg][Aib][dD]C (linker 16-23-30 via TBMB) [Compound 238] | 2.83 |  |  |

The remaining lines, values ahead:

| Ki [1] [nM] | Ki [2] [nM] | Ki [3] [nM] | Binder |
| --- | --- | --- | --- |
| 0.85 |  |  | Ac-[Sar][Sar]H[dD]VPCP[1Nal]G[Aib]F[1Nal]CP[Tle]N[hArg]PGC (linker 7-14-21 via TBMB) [Compound 253] |
| 31.4 |  |  | [βAla][Sar][Sar][Sar][Sar][Sar][Sar][Sar][Sar][Sar][Sar]H[dD]VPC[Aib]WGP[hArg]WCP[Tle]N[hArg]P[dD]C (linker 16-23-30 via TBMB) [Compound 246] |
| 28.4 |  |  | [βAla][Sar][Sar][Sar][Sar][Sar][Sar][Sar][Sar][Sar][Sar]H[dD]VPC[dA][1Nal]G[Aib]F[1Nal]CP[Tle]N[hArg]P[dD]C (linker 16-23-30 via TBMB) [Compound 248] |
| 2.83 |  |  | [βAla][Sar][Sar][Sar][Sar][Sar][Sar][Sar][Sar][Sar][Sar]H[dD]VPC[Aib][1Nal]GP[hArg][1Nal]CP[Tle]NR[Aib]GC (linker 16-23-30 via TBMB) [Compound 243] |
| 0.75 |  |  | {Ac-βAla}-[Sar][Sar][Sar][Sar][Sar][Sar][Sar][Sar][Sar][Sar]H[dD]VPCP[1Nal]G[Aib]F[1Nal]CP[Tle]NR[Aib][dD]C (linker 15-22-29 via TBMB) [Compound 260] |
| 4.91 |  |  | [βAla][Sar][Sar][Sar][Sar][Sar][Sar][Sar][Sar][Sar][Sar]H[dD]VPC[Aib][1Nal]G[Aib]F[1Nal]CP[Tle]NR[Aib]GC (linker 16-23-30 via TBMB) [Compound 239] |
| 1.38 |  |  | [βAla][Sar][Sar][Sar][Sar][Sar][Sar][Sar][Sar][Sar][Sar]H[dD]VPCP[1Nal]G[Aib][hArg][1Nal]CP[Tle]NR[Aib]GC (linker 16-23-30 via TBMB) [Compound 249] |
| 0.54 |  |  | {Ac-βAla}-[Sar][Sar][Sar][Sar][Sar][Sar][Sar][Sar][Sar][Sar]H[dD]VPCP[1Nal]G[Aib]F[1Nal]CP[Tle]NR[Aib]GC (linker 15-22-29 via TBMB) [Compound 258] |
| 1.93 |  |  | [βAla][Sar][Sar][Sar][Sar][Sar][Sar][Sar][Sar][Sar][Sar]H[dD]VPCP[1Nal]G[Aib][hArg][1Nal]CP[Tle]N[hArg]P[dD]C (linker 16-23-30 via TBMB) [Compound 251] |
| 2.98 |  |  | {Ac-βAla}-[Sar][Sar][Sar][Sar][Sar][Sar][Sar][Sar][Sar][Sar]H[dD]VPC[Aib][1Nal]G[Aib]F[1Nal]CP[Tle]NR[Aib][dD]C (linker 15-22-29 via TBMB) [Compound 241] |
| 1.07 |  |  | [βAla][Sar][Sar][Sar][Sar][Sar][Sar][Sar][Sar][Sar][Sar]H[dD]VPCP[1Nal]G[Aib]F[1Nal]CP[Tle]N[hArg]PGC (linker 16-23-30 via TBMB) [Compound 257] |
| 7.77 |  |  | [βAla][Sar][Sar][Sar][Sar][Sar][Sar][Sar][Sar][Sar][Sar]H[dD]VPC[Aib][1Nal]G[Aib]FWCP[Tle]N[hArg]P[dD]C (linker 16-23-30 via TBMB) [Compound 242] |
| 1.48 |  |  | [βAla][Sar][Sar][Sar][Sar][Sar][Sar][Sar][Sar][Sar][Sar]H[dD]VPCP[1Nal]G[Aib][hArg][1Nal]CP[Tle]NR[Aib][dD]C (linker 16-23-30 via TBMB) [Compound 250] |
| 29.7 |  |  | [βAla][Sar][Sar][Sar][Sar][Sar][Sar][Sar][Sar][Sar][Sar]H[dD]VPC[Aib]WGP[hArg]WCP[Tle]N[hArg]P[dD]C (linker 16-23-30 via TBMB) [Compound 247] |
| 1.55 |  |  | [βAla][Sar][Sar][Sar][Sar][Sar][Sar][Sar][Sar][Sar][Sar]H[dD]VPCP[1Nal]G[Aib]FWCP[Tle]N[hArg]P[dD]C (linker 16-23-30 via TBMB) [Compound 265] |
| 0.91 |  |  | [βAla][Sar][Sar][Sar][Sar][Sar][Sar][Sar][Sar][Sar][Sar]H[dD]VPCP[1Nal]G[Aib]F[1Nal]CP[Tle]N[hArg][Aib][dD]C (linker 16-23-30 via TBMB) [Compound 259] |
| 2.8 |  |  | [βAla][Sar][Sar][Sar][Sar][Sar][Sar][Sar][Sar][Sar][Sar]H[dD]VPC[Aib][1Nal]GP[hArg][1Nal]CP[Tle]N[hArg]P[dD]C (linker 16-23-30 via TBMB) [Compound 244] |

Source: patent publication US20200338203A1 (Bicycle, published 2020)
